The target of the series is T1, alpha-amylase (UniProt P0DUB6 P0DUB6:16-511).
T1 sequence: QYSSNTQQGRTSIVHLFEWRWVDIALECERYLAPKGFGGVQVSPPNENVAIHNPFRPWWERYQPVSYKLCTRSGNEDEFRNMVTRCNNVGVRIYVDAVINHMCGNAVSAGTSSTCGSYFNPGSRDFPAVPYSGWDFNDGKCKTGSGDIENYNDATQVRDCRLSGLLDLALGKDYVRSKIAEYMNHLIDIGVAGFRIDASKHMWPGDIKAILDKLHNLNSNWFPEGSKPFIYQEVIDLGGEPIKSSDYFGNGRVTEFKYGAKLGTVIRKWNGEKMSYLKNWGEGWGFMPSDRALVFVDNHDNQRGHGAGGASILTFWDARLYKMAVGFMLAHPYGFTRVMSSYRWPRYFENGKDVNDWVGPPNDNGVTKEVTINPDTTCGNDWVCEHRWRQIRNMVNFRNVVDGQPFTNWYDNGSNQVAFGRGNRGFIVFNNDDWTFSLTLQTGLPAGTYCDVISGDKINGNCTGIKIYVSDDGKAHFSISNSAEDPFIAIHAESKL
The experiment in a line: ELONA. Particulars: tags: Lee Biosolutions 120-17.

The text below walks through data of patent publication US20220334106, “CONJUGATE” (DENSO CORPORATION, published 2022).

B1: DNA aptamer to SARS-CoV-2 spike RBD, alkaline phosphatase conjugate (ssDNA)
DNA: CAGCACCGACCTTGTGCTTTGGGAGTGCTGGTCCAAGGGCGTTAATGGACA
modifications: 5' biotin via C6 spacer
Regarding B1, the binding result is on record as “no binding”.
